# Legend:
# Br2DNiR = target: T1, Br2DNiR (Bradyrhizobium sp. ORS 375, UniProt H0SLX7); test: X-ray crystal structure (MSOX, nitrite-soaked crystal, DS1 […] Å); assay type: binding; settings: 200 mM NaNO2 soak, pH 5.5, 100 K; side-on at type-2 Cu, full occupancy
# T1 construct: gene nirK; two-domain enzyme, recombinant in E. coli with 6xHis tag cleaved by TEV; Cu-loaded T1 and T2 sites; CuNiR homotrimer, site at interface of two monomers
# T1 sequence (H0SLX7 25-364): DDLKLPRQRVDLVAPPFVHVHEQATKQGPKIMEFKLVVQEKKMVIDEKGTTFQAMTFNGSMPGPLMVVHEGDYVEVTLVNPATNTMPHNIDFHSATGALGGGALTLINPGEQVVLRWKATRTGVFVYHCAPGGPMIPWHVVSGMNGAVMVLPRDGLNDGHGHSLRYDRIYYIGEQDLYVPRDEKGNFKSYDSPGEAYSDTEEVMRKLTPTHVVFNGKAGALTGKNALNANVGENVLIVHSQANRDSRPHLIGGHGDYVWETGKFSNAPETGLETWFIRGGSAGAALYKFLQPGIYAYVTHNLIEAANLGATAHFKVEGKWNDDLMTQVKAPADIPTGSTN
# O=NO = test: purified protein; settings: conditions in supplement only
Compound,"X-ray crystal structure (MSOX, nitrite-soaked crystal, DS1 1.19 Å) (Br2DNiR)",Km (O=NO),kcat (O=NO)
O=NO [nitrite],full occupancy nitrite is seen bound to fully occupied T2Cu in a “side-on” orientation,–,–
Br2DNiR (Bradyrhizobium sp. ORS 375),–,7.4 ± 1.2 µM,9 ± 0.5 s⁻¹
